Target: PB2-C (amino acids 247 to 736) from influenza A/Vietnam/1203/2004 (H5N1) virus (influenza A/Vietnam/1203/2004 (H5N1))
Assay: SEC + other: SAXS

With “Rab11a_(1-173) (truncated Rab11a, GST tag removed) (from UniProt P62491 1-173) (domain or fragment)” the stoichiometry N was 1.
